Test results taken from patent US20130266567A1 (published 2013).
“And” between values parts separate entries of the source, which are not always exact repeats. Equal values may be shown once.

B1: DOM7r-92-103 (VHH)
VHH: EVQLLESGGGLVQPGGSLRLSCAASGFTFDTSSMLWVRQAPGKGLEWVSVIHQSGTPTYYADSVKGRFTISRDNSKNTLYLQMNSLRAEDTAVYYCAKFPSEGMNFDYWGQGTLVTVSS
notes: VH immunoglobulin single variable domain (dAb, AlbudAb), not a camelid VHH; tested with a myc tag; not shown: myc tag
B2: DOM7r-36-2 (VHH)
VHH: EVQLLESGGGLVQPGGSLRLSCAASGFTFNHYTMGWVRQAPGKGREWVSLIHPSGTVTYYADSVKGRFTISRDNSKNTLYLQMNSLRAEDTAVYYCAKWSSRAFDYWGQGTLVTVSS
notes: VH immunoglobulin single variable domain (dAb, AlbudAb), not a camelid VHH; tested with a myc tag; also called 7r36-2 (Parent); not shown: myc tag
B3: DOM7r-36-104 (VHH)
VHH: EVQLLESGGGLVQPGGSLRLSCAASGFTFNHYTMGWVRQAPGKGREWVSLIHPSGTVTYYADSVKGRFTISRDNSKNTLYLQMNSLRAEDTAVYYCAKWATRGFDYWGQGTLVTVSS
notes: as for B1
B4: DOM7r-36-103 (VHH)
VHH: EVQLLESGGGLVQPGGSLRLSCAASGFTFNHYTMGWVRQAPGKGREWVSLIHPSGTVTYYADSVKGRFTTSRDNSKNTLYLQMNSLRAEDTAVYYCAKWDRKLFDHWGQGTLVTVSS
notes: as for B1
B5: DOM7r-36-106 (VHH)
VHH: EVQLLESGGGLVQPGGSLRLSCAASGFTFNHYTMGWVRQAPGKGREWVSLIHPSGTVTYYADSVKGRFTISRDNSKNTLYLQMNSLRAEDTAVYYCAKFRGRGFDYWGQGTLVTVSS
notes: as for B1
B6: DOM7r-36-100 (VHH)
VHH: EVQLLESGGGLVQPGGSLRLSCAASGFTFNHYTMGWVRQAPGKGREWVSLIHPSGTVTYYADSVKGRFTISRDNSKNTLYLQMNSLRAEDTAVYYCAKWERRTFDYWGQGTLVTVSS
notes: as for B1
B7: DOM7r-36-108 (VHH)
VHH: EVQLLESGGGLVQPGGSLRLSCAASGFTFNHYTMGWVRQAPGKGREWVSLIHPSGTVTYYADSVKGRFTTSRDNSKNTLYLQMNSLRAEDTAVYYCAKLEGRSFDYWGQGTLVTVSS
notes: as for B1
B8: DOM7r-36-105 (VHH)
VHH: EVQLLESGGGLVQPGGSLRLSCAASGFTFNHYTMGWVRQAPGKGREWVSLIHPSGTVTYYADSVKGRFTISRDNSKNTLYLQMNSLRAEDTAVYYCAKLGTKVFDYWGQGTLVTVSS
notes: as for B1
B9: DOM7r-36-101 (VHH)
VHH: EVQLLESGGGLVQPGGSLRLSCAASGFTFNHYTMGWVRQAPGKGREWVSLIHPSGTVTYYADSVKGRFTISRDNSKNTLYLQMNSLRAEDTAVYYCAKWFLKSFDYWGQGTLVTVSS
notes: as for B1
B10: DOM7r-36-107 (VHH)
VHH: EVQLLESGGGLVQPGGSLRLSCAASGFTFNHYTMGWVRQAPGKGREWVSLIHPSGTVTYYADSVKGRFTISRDNSKNTLYLQMNSLRAEDTAVYYCAKWEKKYFDYWGQGTLVTVSS
notes: as for B1
B11: DOM7r-36-102 (VHH)
VHH: EVQLLESGGGLVQPGGSLRLSCAASGFTFNHYTMGWVRQAPGKGREWVSLIHPSGTVTYYADSVKGRFTISRDNSKNTLYLQMNSLRAEDTAVYYCAKWFYRNFDYWGQGTLVTVSS
notes: as for B1

Legend:
Human serum albumin [1] = target: T1, Human serum albumin (human, UniProt P02768 25-609); test: SPR, BIAcore 3000, serum albumin coupled to CM5 chip;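 further: Cross-reactivity of anti-serum albumin domain antibodies measured against human, cynomolgus monkey, rat and mouse serum albumin, binding kinetics giving Kd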
T1 construct: coupled to CM5 BIAcore chip; also called human SA; HSA
Method: (§1) Cross-reactivity of the AlbudAbs™ (ie, anti-serum albumin dAbs) was determined against human, Cynomolgus monkey (cyno), rat and mouse serum albumin using surface plasmon resonance (SPR). In this case, Biacore™ was used. Biacore™ 2000/3000 was used for the supernatant screens and determination of binding kinetic all of dAbs described herein. Biacore™ T100 was used for the determination of cross-reactivity of lead Vk and VH Albudabs to a wider range of species' SAs (12 in total). Protein samples were run on the T100 BIAcore as described for the BIAcore2000/3000 experiments. […] Where appropriate, a kinetic Langmuir 1:1 fitting model was used.

Cynomolgus serum albumin [2] = target: T2, Cynomolgus serum albumin (Cynomolgus monkey, UniProt A2V9Z4 25-608); test: as above
T2 construct: mature; purified native protein; coupled to CM5 BIAcore chip; also called cyno SA; CSA
Method: as §1

Rat serum albumin [3] = target: T3, Rat serum albumin (rat, UniProt P02770 25-608); test: as above
T3 construct: coupled to CM5 BIAcore chip; also called rat SA; RSA
Method: as §1

Human serum albumin [4] = target: T1, Human serum albumin; test: SPR, BIAcore 3000, serum albumin coupled to CM5 chip; first of two independent measurements on different protein batches
Method: as §1

Mouse serum albumin [5] = target: T4, Mouse serum albumin (mouse, UniProt P07724 25-608); test: SPR, BIAcore 3000, serum albumin coupled to CM5 chip;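 further: Cross-reactivity of anti-serum albumin domain antibodies measured against human, cynomolgus monkey, rat and mouse serum albumin, binding kinetics giving Kd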
T4 construct: mature; bought purified protein; coupled to CM5 BIAcore chip; also called mouse SA; MSA
Method: as §1

Human serum albumin [6] = target: T1, Human serum albumin; test: SPR, BIAcore 3000, serum albumin coupled to CM5 chip; second of two independent measurements on different protein batches
Rat serum albumin [7] = target: T3, Rat serum albumin; test: SPR, BIAcore 3000, serum albumin coupled to CM5 chip; last of the independent measurements on different protein batches
Mini Pig serum albumin = Mini Pig serum albumin (mini pig); test: SPR, BIAcore T100, equilibrium KD
Method: as §1

Sheep serum albumin = Sheep serum albumin (sheep, UniProt P14639 25-607); test: SPR, BIAcore T100, equilibrium KD
Method: as §1

Ferret serum albumin = Ferret serum albumin (ferret); test: SPR, BIAcore T100, equilibrium KD
Method: as §1

Pig serum albumin = Pig serum albumin (pig, UniProt P08835 25-607); test: SPR, BIAcore T100, equilibrium KD
Method: as §1

Human serum albumin [8] = target: T1, Human serum albumin; test: SPR, BIAcore T100, equilibrium KD
Method: as §1

Cynomolgus serum albumin [9] = target: T2, Cynomolgus serum albumin; test: SPR, BIAcore T100, equilibrium KD
Method: as §1

Dog serum albumin = Dog serum albumin (dog, UniProt P49822 25-608); test: SPR, BIAcore T100, equilibrium KD
Method: as §1

Mouse serum albumin [10] = target: T4, Mouse serum albumin; test: SPR, BIAcore T100, equilibrium KD
Method: as §1

Rat serum albumin [11] = target: T3, Rat serum albumin; test: SPR, BIAcore T100, equilibrium KD
Method: as §1

Marmoset serum albumin = Marmoset serum albumin (marmoset); test: SPR, BIAcore T100, equilibrium KD
Method: as §1

Rabbit serum albumin = Rabbit serum albumin (rabbit, UniProt P49065 25-608); test: SPR, BIAcore T100
Method: as §1

| Binder | Kd (Human serum albumin [1]) | Kd (Cynomolgus serum albumin [2]) | Kd (Rat serum albumin [3]) | Kd (Mouse serum albumin [5]) | other results |
| --- | --- | --- | --- | --- | --- |
| B1 | 160 nM and 123 nM | 770 nM | – | – | – |
| B2 | 190 nM and 360 nM and 305 nM and 385 nM | 800 nM and 815 nM and 628 nM and 1500 nM | 467 nM and 330 nM and 244 nM and 229 nM | – | – |
| B3 | – | 149 nM and 360 nM | 109 nM and 114 nM | 184 nM and 313 nM | Kd (Human serum albumin [4]): 82 nM; Kd (Human serum albumin [6]): 9 nM |
| B4 | 62 nM and 65 nM | 94 nM | 100 nM and 57 nM | 270 nM | – |
| B5 | 209 nM and 124 nM | 840 nM and 1100 nM | 75 nM | 113 nM and 73 nM | Kd (Rat serum albumin [7]): 42 nM |
| B6 | 74 nM and 100 nM and 35 nM | 87 nM and 230 nM | 105 nM and 70 nM | 100 nM | – |
| B7 | 82 nM and 67 nM | 265 nM | – | 37.6 nM | – |
| B8 | 284 nM and 313 nM | – | 170 nM | – | – |
| B9 | 86 nM | 72 nM | 183 nM | – | – |
| B10 | 83.4 nM and 44.5 nM | 127 nM | 97.3 nM and 209 nM | 466 nM | Kd (Mini Pig serum albumin): 895 nM; Kd (Sheep serum albumin): 637 nM; Kd (Ferret serum albumin): 740 nM; Kd (Pig serum albumin): 818 nM; Kd (Human serum albumin [8]): 18.3 nM; Kd (Cynomolgus serum albumin [9]): 21.4 nM; Kd (Dog serum albumin): 719 nM; Kd (Mouse serum albumin [10]): 143 nM; Kd (Rat serum albumin [11]): 99.2 nM; Kd (Marmoset serum albumin): 111 nM; binding result (Rabbit serum albumin): no binding (tested: dilution series from 5 uM down to 39 nM) |
| B11 | – | 430 nM | 100 nM | 250 nM | – |
